The source of these data is IntAct's records for PubMed 25416956.

B1: EF-hand domain-containing protein 1 (Homo sapiens), Q5JVL4 (parent)
chain: MVSNPVHGLPFLPGTSFKDSTKTAFHRSQTLSYRNGYAIVRRPTVGIGGDRLQFNQLSQAELDELASKAPVLTYGQPKQAPPADFIPAHVAFDKKVLKFDAYFQEDVPMSTEEQYRIRQVNIYYYLEDDSMSVIEPVVENSGILQGKLIKRQRLAKNDRGDHYHWKDLNRGINITIYGKTFRVVDCDQFTQVFLESQGIELNPPEKMALDPYTELRKQPLRKYVTPSDFDQLKQFLTFDKQVLRFYAIWDDTDSMYGECRTYIIHYYLMDDTVEIREVHERNDGRDPFPLLMNRQRVPKVLVENAKNFPQCVLEISDQEVLEWYTAKDFIVGKSLTILGRTFFIYDCDPFTRRYYKEKFGITDLPRIDVSKREPPPVKQELPPYNGFGLVEDSAQNCFALIPKAPKKDVIKMLVNDNKVLRYLAVLESPIPEDKDRRFVFSYFLATDMISIFEPPVRNSGIIGGKYLGRTKVVKPYSTVDNPVYYGPSDFFIGAVIEVFGHRFIILDTDEYVLKYMESNAAQYSPEALASIQNHVRKREAPAPEAESKQTEKDPGVQELEALIDTIQKQLKDHSCKDNIREAFQIYDKEASGYVDRDMFFKICESLNVPVDDSLVKELIRMCSHGEGKINYYNFVRAFSN
B2: Keratin, type II cytoskeletal 2 epidermal (Homo sapiens), P35908 (parent)
chain: MSCQISCKSRGRGGGGGGFRGFSSGSAVVSGGSRRSTSSFSCLSRHGGGGGGFGGGGFGSRSLVGLGGTKSISISVAGGGGGFGAAGGFGGRGGGFGGGSSFGGGSGFSGGGFGGGGFGGGRFGGFGGPGGVGGLGGPGGFGPGGYPGGIHEVSVNQSLLQPLNVKVDPEIQNVKAQEREQIKTLNNKFASFIDKVRFLEQQNQVLQTKWELLQQMNVGTRPINLEPIFQGYIDSLKRYLDGLTAERTSQNSELNNMQDLVEDYKKKYEDEINKRTAAENDFVTLKKDVDNAYMIKVELQSKVDLLNQEIEFLKVLYDAEISQIHQSVTDTNVILSMDNSRNLDLDSIIAEVKAQYEEIAQRSKEEAEALYHSKYEELQVTVGRHGDSLKEIKIEISELNRVIQRLQGEIAHVKKQCKNVQDAIADAEQRGEHALKDARNKLNDLEEALQQAKEDLARLLRDYQELMNVKLALDVEIATYRKLLEGEECRMSGDLSSNVTVSVTSSTISSNVASKAAFGGSGGRGSSSGGGYSSGSSSYGSGGRQSGSRGGSGGGGSISGGGYGSGGGSGGRYGSGGGSKGGSISGGGYGSGGGKHSSGGGSRGGSSSGGGYGSGGGGSSSVKGSSGEAFGSSVTFSFR
partner: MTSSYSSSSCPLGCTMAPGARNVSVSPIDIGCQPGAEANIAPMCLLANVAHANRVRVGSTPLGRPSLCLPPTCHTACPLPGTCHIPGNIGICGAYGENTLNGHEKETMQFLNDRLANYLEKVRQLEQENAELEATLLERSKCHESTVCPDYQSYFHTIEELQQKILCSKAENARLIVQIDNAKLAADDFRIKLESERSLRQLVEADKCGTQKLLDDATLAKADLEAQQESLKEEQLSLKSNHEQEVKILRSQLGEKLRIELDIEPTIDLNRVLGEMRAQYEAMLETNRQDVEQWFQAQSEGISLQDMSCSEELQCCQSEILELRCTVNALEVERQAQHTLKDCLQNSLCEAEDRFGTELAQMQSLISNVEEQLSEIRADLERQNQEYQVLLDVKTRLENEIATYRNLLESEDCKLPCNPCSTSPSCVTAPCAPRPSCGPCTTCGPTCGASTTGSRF
B3: Beta-crystallin A4 (Homo sapiens), P53673 (parent)
chain: MTLQCTKSAGPWKMVVWDEDGFQGRRHEFTAECPSVLELGFETVRSLKVLSGAWVGFEHAGFQGQQYILERGEYPSWDAWGGNTAYPAERLTSFRPAACANHRDSRLTIFEQENFLGKKGELSDDYPSLQAMGWEGNEVGSFHVHSGAWVCSQFPGYRGFQYVLECDHHSGDYKHFREWGSHAPTFQVQSIRRIQQ
partner: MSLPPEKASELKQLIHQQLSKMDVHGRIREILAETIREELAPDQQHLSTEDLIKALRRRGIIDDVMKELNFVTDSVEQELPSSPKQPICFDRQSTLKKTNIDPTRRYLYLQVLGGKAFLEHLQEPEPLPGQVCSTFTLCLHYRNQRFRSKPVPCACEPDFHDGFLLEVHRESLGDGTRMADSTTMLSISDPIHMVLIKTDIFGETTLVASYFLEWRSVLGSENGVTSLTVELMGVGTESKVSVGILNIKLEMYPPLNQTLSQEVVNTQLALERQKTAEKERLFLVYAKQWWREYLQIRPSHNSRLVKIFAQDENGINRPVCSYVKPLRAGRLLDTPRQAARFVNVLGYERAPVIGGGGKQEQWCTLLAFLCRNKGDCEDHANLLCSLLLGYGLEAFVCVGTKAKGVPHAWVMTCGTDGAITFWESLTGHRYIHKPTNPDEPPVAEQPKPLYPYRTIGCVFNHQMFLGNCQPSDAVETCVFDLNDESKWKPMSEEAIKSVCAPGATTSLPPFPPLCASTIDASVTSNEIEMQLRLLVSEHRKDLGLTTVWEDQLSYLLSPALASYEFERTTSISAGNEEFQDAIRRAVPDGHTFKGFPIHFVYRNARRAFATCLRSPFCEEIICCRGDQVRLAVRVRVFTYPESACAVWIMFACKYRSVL
B4: Serotonin N-acetyltransferase (Homo sapiens), Q16613 (parent)
chain: MSTQSTHPLKPEAPRLPPGIPESPSCQRRHTLPASEFRCLTPEDAVSAFEIEREAFISVLGVCPLYLDEIRHFLTLCPELSLGWFEEGCLVAFIIGSLWDKERLMQESLTLHRSGGHIAHLHVLAVHRAFRQQGRGPILLWRYLHHLGSQPAVRRAALMCEDALVPFYERFSFHAVGPCAITVGSLTFMELHCSLRGHPFLRRNSGC

In the first experiment the parent is B1. The settings on record: with itf2_human TCF4, P15884.
Sequence of itf2_human TCF4, P15884 (P15884 whole entry): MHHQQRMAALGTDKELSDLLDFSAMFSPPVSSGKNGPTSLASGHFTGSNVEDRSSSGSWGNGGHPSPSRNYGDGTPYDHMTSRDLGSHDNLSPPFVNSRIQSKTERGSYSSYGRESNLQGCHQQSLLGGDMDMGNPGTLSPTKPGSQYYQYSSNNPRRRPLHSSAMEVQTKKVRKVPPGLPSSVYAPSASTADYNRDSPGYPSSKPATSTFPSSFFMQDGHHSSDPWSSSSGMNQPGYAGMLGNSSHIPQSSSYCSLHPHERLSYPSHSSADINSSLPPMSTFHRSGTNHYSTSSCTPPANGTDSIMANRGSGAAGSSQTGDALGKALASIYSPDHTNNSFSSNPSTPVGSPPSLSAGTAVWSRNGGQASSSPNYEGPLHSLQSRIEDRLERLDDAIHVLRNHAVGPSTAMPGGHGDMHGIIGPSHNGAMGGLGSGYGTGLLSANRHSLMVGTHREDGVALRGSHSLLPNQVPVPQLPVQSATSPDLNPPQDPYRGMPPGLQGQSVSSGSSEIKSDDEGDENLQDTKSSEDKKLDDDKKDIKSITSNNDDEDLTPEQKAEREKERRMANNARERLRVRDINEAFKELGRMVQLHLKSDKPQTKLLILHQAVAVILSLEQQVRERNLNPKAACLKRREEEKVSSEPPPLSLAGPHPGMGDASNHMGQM
Regarding A394S, the “effect of a mutation on the interaction” value is recorded as “disrupting interaction”.

In another experiment the parent is B1. The settings on record: with ikzf3_human IKZF3, Q9UKT9.
Sequence of ikzf3_human IKZF3, Q9UKT9 (Q9UKT9 whole entry): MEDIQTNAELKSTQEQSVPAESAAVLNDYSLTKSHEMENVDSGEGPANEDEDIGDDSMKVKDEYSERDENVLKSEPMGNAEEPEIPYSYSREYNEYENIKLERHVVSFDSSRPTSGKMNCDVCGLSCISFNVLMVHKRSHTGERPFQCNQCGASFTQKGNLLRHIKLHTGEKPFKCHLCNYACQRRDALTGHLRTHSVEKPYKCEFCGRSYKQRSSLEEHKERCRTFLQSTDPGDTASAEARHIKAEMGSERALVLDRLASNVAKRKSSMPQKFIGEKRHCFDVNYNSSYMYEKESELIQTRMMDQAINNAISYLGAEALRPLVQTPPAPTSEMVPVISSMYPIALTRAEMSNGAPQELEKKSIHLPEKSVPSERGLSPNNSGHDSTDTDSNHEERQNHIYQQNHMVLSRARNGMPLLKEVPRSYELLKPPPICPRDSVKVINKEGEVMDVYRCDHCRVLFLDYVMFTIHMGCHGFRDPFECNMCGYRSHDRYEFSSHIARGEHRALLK
Turning to A394S, the “effect of a mutation on the interaction” value is listed as “disrupting interaction”.

Variants of B1 are the subject of another experiment. The settings on record: with itf2_human TCF4, P15884. The source holds these as a separate data set.
With T508R, the “effect of a mutation on the interaction” value was “disrupting interaction”.

In a further experiment the parent is B2. The settings on record: with krt38_human KRT38, O76015.
For I477N, the “effect of a mutation on the interaction” value is listed as “disrupting interaction”.

The variants in a further experiment derive from B3. The settings on record: with cep76_human CEP76, Q8TAP6.
Take L69P: the “effect of a mutation on the interaction” value was “disrupting interaction”.

The variants in another experiment derive from B3. The settings on record: with cep76_human CEP76, Q8TAP6. The source holds these as a separate data set.
As to F94S, the “effect of a mutation on the interaction” value is recorded as “disrupting interaction”.

A further experiment covers variants of B3. The settings on record: with cep76_human CEP76, Q8TAP6. This is another data set of the same source.
For V36M, the “effect of a mutation on the interaction” value is listed as “disrupting interaction”.

Variants of B4 are the subject of another experiment. The settings on record: with bhe40_human BHLHE40, O14503.
Sequence of bhe40_human BHLHE40, O14503 (O14503 whole entry): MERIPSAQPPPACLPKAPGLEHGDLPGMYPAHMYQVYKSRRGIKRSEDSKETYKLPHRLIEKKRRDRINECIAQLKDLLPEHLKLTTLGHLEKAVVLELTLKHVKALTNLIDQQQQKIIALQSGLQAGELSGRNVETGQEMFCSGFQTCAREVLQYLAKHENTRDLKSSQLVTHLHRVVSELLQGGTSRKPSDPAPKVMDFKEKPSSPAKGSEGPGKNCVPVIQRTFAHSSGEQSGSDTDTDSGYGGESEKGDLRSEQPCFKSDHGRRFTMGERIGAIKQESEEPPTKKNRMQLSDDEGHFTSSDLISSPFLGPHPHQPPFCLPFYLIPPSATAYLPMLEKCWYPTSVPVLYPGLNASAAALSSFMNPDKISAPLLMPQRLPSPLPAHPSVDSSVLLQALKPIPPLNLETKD
Take A129T: the “effect of a mutation on the interaction” value is “disrupting interaction”.
